Reference: article PMC9604462, “SAXS Examinations of the Redox-Dependent Formation of a DNA-SOD1 Complex”

Columns and labels:
[1] = target: bovine SOD1, rhodamine B labeled (bovine, UniProt P00442 2-152); assay: FRET; 20 mM Tris-HCl pH 7.4; 100 uM DNA, 200 uM SOD1; fitted from kinetic curve; FRET: 20 mM Tris-HCl pH 7.4, 37 C, 2 h; MST: 10 mM PBS pH 7.4, 0.05% Tween, room temperature, 5 min; SAXS: 100 uM bovine SOD1 and dsDNA, buffer not given in material; details: protein: commercial; tags: rhodamine B label; chain copies: 2; blunt
[2] = target: human Cu/Zn superoxide dismutase SOD1, RED-NHS labeled (human, UniProt P00441 1-154); assay: MST; 500 nM SOD1; DNA two-fold dilutions from 20 uM; FRET: 20 mM Tris-HCl pH 7.4, 37 C, 2 h; MST: 10 mM PBS pH 7.4, 0.05% Tween, room temperature, 5 min; SAXS: 100 uM bovine SOD1 and dsDNA, buffer not given in material; details: protein: recombinant; tags: N-terminal His tag; RED-NHS dye; chain copies: 2; blunt
human Cu/Zn superoxide dismutase SOD1, RED-NHS labeled, sequence (P00441 whole entry): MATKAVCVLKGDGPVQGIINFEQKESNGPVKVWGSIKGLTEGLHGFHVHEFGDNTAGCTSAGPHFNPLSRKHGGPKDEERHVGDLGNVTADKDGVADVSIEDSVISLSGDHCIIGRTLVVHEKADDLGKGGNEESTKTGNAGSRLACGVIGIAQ

bovine SOD1, rhodamine B labeled, sequence (P00442 2-152): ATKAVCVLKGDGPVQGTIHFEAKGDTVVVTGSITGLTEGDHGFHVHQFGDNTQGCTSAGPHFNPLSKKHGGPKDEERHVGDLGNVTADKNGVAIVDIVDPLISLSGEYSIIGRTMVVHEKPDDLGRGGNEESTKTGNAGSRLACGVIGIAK

B1: FITC-dsDNA (dsDNA)
DNA 1: ATGGAATGGAAT
DNA 2: ATTCCATTCCAT
[1]
  Kd: 105 nM

B2: dsDNA (dsDNA)
DNA 1: ATGGAATGGAAT
DNA 2: ATTCCATTCCAT
[2]
  Kd: 155 nM
